{
  "source": "paper PMC10512533",
  "about": "“A strategy to enhance and modify fatty acid synthesis in Corynebacterium glutamicum and Escherichia coli: overexpression of acyl-CoA thioesterases” (Microbial Cell Factories, 2023)",
  "molecules": {"B1": {"name": "TesB (Corynebacterium glutamicum ATCC 13032) (protein)", "chain": "MKTIEDILTLEEIDRDIYRGPVIESYLARTFGGQVAAQALVAATHTVDKAFTVHSLHGYFIAPGDPTAPAIYLVDRVRDGKSYVTRSVRGIQDGEVIFSMQASFHRGDEGIEHMDKMRKVPAPDEIKGTVERMPISSRRVLDEWAEWDIRVIPQDQLELSDFTATEQAVWIRCTADLPDNPTFHQCSLTYLSDMTLLHSALVPHPGEKMQMASLDHAVWFLRPFRVDEWLLYDQRSPSASSGRALTHGRLFNQQGDLVAIVNQEGMTRTLHEGAQSIPMRKD", "notes": "full length in pET-28a(+), His-tag (Ni-NTA), E. coli BL21(DE3); forward primer encodes MKTIE start; TE4 family"}, "B2": {"name": "TE9 (Corynebacterium glutamicum ATCC 13032) (protein)", "chain": "MFLTLSGADMSALIKGSGPHHVVVLNGWFGHAAGWGAFADYLDLGNYTWHFWDYRGYGNRKDDAGEFTLEEISADIVAYIDSIEAEKVSILGHSMGGVFMQKVLADSATPIASLVGISAVAAAGTPFDEDSRKLFTSAGHNPDSRRAIIDFTSGSRQPAAWLDDLTDSTVQNSTPEAVEKYFFAWADCNFAADLGTQDLPVYILTGDLDPAVTKTAVESAFGPIYQNLTVEELHDVGHYAIFEHPLGLAARVLRFLDAV", "notes": "full length in pET-28a(+), His-tag (Ni-NTA), E. coli BL21(DE3); forward primer encodes MFLTL start"}},
  "experiment_in_all_cases": "thioesterase assay, Lineweaver-Burk plot",
  "key": {"TesA": {"biological_target": "T1, TesA (Corynebacterium glutamicum, UniProt Q8NMW3)", "T1 construct": "gene Cgl2451; full length in pET-28a(+), His-tag (Ni-NTA), E. coli BL21(DE3); forward primer encodes MAANN start; TE1 family", "T1 sequence (Q8NMW3 1-155)": "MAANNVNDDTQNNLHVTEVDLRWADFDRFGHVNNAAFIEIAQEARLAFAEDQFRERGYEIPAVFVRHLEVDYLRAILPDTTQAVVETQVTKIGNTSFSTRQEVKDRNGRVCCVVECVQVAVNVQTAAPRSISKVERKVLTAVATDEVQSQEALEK", "type": "biochemical", "conditions": "optimal substrate; assay conditions of the kinetics not stated (optimum 30 °C, pH 8.0)", "text": "thioesterase assay, Lineweaver-Burk plot on TesA | of TesA estimated through fitting to the Michaelis–Menten equation"}, "[1]": {"substrate": "CCCCCCCC(=O)SCCNC(=O)CCNC(=O)[C@H](O)C(C)(C)COP(=O)(O)OP(=O)(O)OC[C@H]1O[C@@H](n2cnc3c(N)ncnc32)[C@H](O)[C@@H]1OP(=O)(O)O", "type": "biochemical, Corynebacterium glutamicum", "conditions": "optimal substrate, assay conditions of the kinetics not stated (optimum 30 °C, pH 8.0), authors' other TesB properties (Fig. 5) come from their previous studies"}, "[2]": {"substrate": "CC(=O)SCCNC(=O)CCNC(=O)[C@H](O)C(C)(C)COP(=O)(O)OP(=O)(O)OC[C@H]1O[C@@H](n2cnc3c(N)ncnc32)[C@H](O)[C@@H]1OP(=O)(O)O", "type": "biochemical, Corynebacterium glutamicum", "conditions": "optimal substrate, assay conditions of the kinetics not stated (optimum 30 °C, pH 9.0)"}},
  "data": [
    {"molecule": "CCCCCCCCCCCC(=O)SCCNC(=O)CCNC(=O)[C@H](O)C(C)(C)COP(=O)(O)OP(=O)(O)OC[C@H]1O[C@@H](n2cnc3c(N)ncnc32)[C@H](O)[C@@H]1OP(=O)(O)O", "note": "[C12, lauroyl-CoA]", "values": [
      {"measurement": "Km", "setting": "TesA", "value": 1380, "unit": "µM"}
    ]},
    {"molecule": "B1", "values": [
      {"measurement": "Km", "setting": "[1]", "value": 5450, "unit": "µM"}
    ]},
    {"molecule": "B2", "values": [
      {"measurement": "Km", "setting": "[2]", "value": 1810, "unit": "µM"}
    ]}
  ]
}
